Paper PMC13323077, “Hydrophobic tuning with non-canonical amino acids in a copper metalloenzyme” (Nature Chemistry, 2026)

Assays:
purified protein [1] = substrate: CCn1c(=NN=c2sc3cc(S(=O)(=O)O)ccc3n2CC)sc2cc(S(=O)(=O)O)ccc21; experiment: purified protein; assay type: biochemical, Streptomyces coelicolor; conditions: pH 4.0, 25 °C, 20 mM Britton-Robinson buffer
purified protein [2] = substrate: CC(=O)N1c2ccc(O)cc2Oc2cc(O)ccc21; experiment: purified protein; assay type: biochemical, Streptomyces coelicolor; conditions: pH 7.0, 25 °C, 20 mM Britton-Robinson buffer
[3] = 500 µM CuCl2, air O2, 1 µM enzyme
[4] = 1 mM CuCl2, air O2, 1,000 nM enzyme

B1: ScSLAC (Streptomyces coelicolor A3(2)) (protein)
chain: APAAKGITARTAPAGGEVRHLKMYAEKLADGQMGYGFEKGKASVPGPLIEVNEGDTLHIEFTNTMDVRASLHVHGLDYEISSDGTAMNKSDVEPGGTRTYTWRTHKPGRRDDGTWRPGSAGYWHYHDHVVGTEHGTGGIRNGLYGPVIVRRKGDVLPDATHTIVFNDMTINNRKPHTGPDFEATVGDRVEIVMITHGEYYHTFHMHGHRWADNRTGILTGPDDPSRVIDNKITGPADSFGFQIIAGEGVGAGAWMYHCHVQSHSDMGMVGLFLVKKPDGTIPGYEPHEHGGATAKSGESGEPTGGAAAHEHEH
notes: N-terminal signal peptide (residues 2-30) removed, C-terminal His6, pET28, expressed in E. coli B-95deltaAdeltafabR, Cu-loaded; homotrimer (known biology)
Km (purified protein [1]; 1 mM CuCl2, air O2, 200 nM enzyme): 0.96(5) mM | Km (purified protein [2]; [3]): 0.25(3) mM | kcat (purified protein [2]; [3]): 0.045(4) min-1

B2: ScSLAC (Streptomyces coelicolor A3(2); M298L) (protein)
chain: APAAKGITARTAPAGGEVRHLKMYAEKLADGQMGYGFEKGKASVPGPLIEVNEGDTLHIEFTNTMDVRASLHVHGLDYEISSDGTAMNKSDVEPGGTRTYTWRTHKPGRRDDGTWRPGSAGYWHYHDHVVGTEHGTGGIRNGLYGPVIVRRKGDVLPDATHTIVFNDMTINNRKPHTGPDFEATVGDRVEIVMITHGEYYHTFHMHGHRWADNRTGILTGPDDPSRVIDNKITGPADSFGFQIIAGEGVGAGAWMYHCHVQSHSDMGLVGLFLVKKPDGTIPGYEPHEHGGATAKSGESGEPTGGAAAHEHEH
notes: as for B1
Km (purified protein [1]; [4]): 1.19(7) mM | kcat (purified protein [1]; [4]): 0.32(1) s-1

B3: ScSLAC (Streptomyces coelicolor A3(2); M298F) (protein)
chain: APAAKGITARTAPAGGEVRHLKMYAEKLADGQMGYGFEKGKASVPGPLIEVNEGDTLHIEFTNTMDVRASLHVHGLDYEISSDGTAMNKSDVEPGGTRTYTWRTHKPGRRDDGTWRPGSAGYWHYHDHVVGTEHGTGGIRNGLYGPVIVRRKGDVLPDATHTIVFNDMTINNRKPHTGPDFEATVGDRVEIVMITHGEYYHTFHMHGHRWADNRTGILTGPDDPSRVIDNKITGPADSFGFQIIAGEGVGAGAWMYHCHVQSHSDMGFVGLFLVKKPDGTIPGYEPHEHGGATAKSGESGEPTGGAAAHEHEH
notes: as for B1
Km (purified protein [1]; [4]): 0.4(1) mM | kcat (purified protein [1]; [4]): 0.19(3) s-1

B4: ScSLAC (Streptomyces coelicolor A3(2); M296W/S292P) (protein)
chain: APAAKGITARTAPAGGEVRHLKMYAEKLADGQMGYGFEKGKASVPGPLIEVNEGDTLHIEFTNTMDVRASLHVHGLDYEISSDGTAMNKSDVEPGGTRTYTWRTHKPGRRDDGTWRPGSAGYWHYHDHVVGTEHGTGGIRNGLYGPVIVRRKGDVLPDATHTIVFNDMTINNRKPHTGPDFEATVGDRVEIVMITHGEYYHTFHMHGHRWADNRTGILTGPDDPSRVIDNKITGPADSFGFQIIAGEGVGAGAWMYHCHVQPHSDWGMVGLFLVKKPDGTIPGYEPHEHGGATAKSGESGEPTGGAAAHEHEH
notes: as for B1
Km (purified protein [2]; 500 µM CuCl2, air O2): 0.144(5) mM | kcat (purified protein [2]; 500 µM CuCl2, air O2): 0.405(4) min-1
